From a protein production outcome set (Wang et al. 2014)

Assay: label from the status in PepcDB records

## MSKIFVNPSAIRAGLADLEMAEETVDLINRNIEDNQAHLQGEPIEVDNLPEDMGRLHLDDGKSPNPGEMAKVGEGKYREDFQMDEGEDPSLLFQSYLDNVGVQIVRQIRSGERFLKIWSQTVEEIISYVAVNFPNPPGKSSEDKSTQTTGRELKKETTPTPSQRESQSSKARMAAQTASGPPALEWSATNEEDDLSVEAEIAHQIAESFSKKYKFPSRSSGILLYNFEQLKMNLDDIVKEAKNVPGVTRLARDGSKLPLRCVLGWVALANSKKFQLLVESNKLSKIMQDDLNRYTSC
  protein production: not failed

## MSKILLTGASGYIGSHLKNKLKKDHEVIAISRNTHNKTDEENVTWKSADLFDLDEITKVMKDVDTAIYLVHSMMPSAKLTQASFEDMDALLADNFARAAQKQGVKHIVYMSGLIPENDELSAHLRSRLECEKILGDYGIPVSTLRAGLIIGAKGSSYPILKRLVKRLPAMVLPSWAYNKIAPVAIDDVIDGLAALVNRTPKDNEAIDITGPEVMNYKTLIQRTANVLDKRLPMLDLPIIPIIVSRYWVQLISNVPKEMVYPLMNSLTHDMVPHRKRVVSNLSVGNITFEDSVKRALREEQKTSKKKSDSKNSQSFGRMHQEIKDVRAITRFKIPEGYSIKDVTKEYAKFINNITLHLVKGTINEREFNMNLPFINKFILKMERDEADSTEDMVVYNIVGGDLAHSNDGGNARFEFRRIRNTNEGIIALQEYEPTLPWVVYKLTQAKAHKTVMNIFKNKMARLAQQKNVKDETYMSNRVTIGVTVASAFVIGSAVGFQLFKKHQIKKNTMSNAEL
  protein production: failed

## MSKKIILITGASSGFGRLTAEALWSRPPGIRLDARHCRPQRVQCSPALPGTMTLTCAPWSSTSSRRSVDRAIDQIIGEDGRIDVLIHNAPHGVRTRRSIHARAVRRALRYQCAPNASTGRRCRTCAGKSMGFSWISSSSSAGGTPPYLAPYFAAKAHGCHRCAVRTAVALGHRDVDHRPVPSRAAPITSPIPAYRTTTPAAEYEAGPNAGLGEEIKKAFAAIVAGRRCVTGCRCHCSGCGHRVRQARSGCTSTRPKTAPMWDSAFWTGRAEMLHRVGLSDLLKPRALA
  protein production: not failed

## MSKKKILIFISVILIIFGGVYLKMKYDEKAKQKEIYYKEQQERITLYLKYNTKKPNTIKSVHFTSLEQGPMGDAIIEGYINNNKEDEFVAFASPENNYQFGGGLTADVKIFKLLKPANESRSPNEIKKDLDKKKERLEHHHHHH
  protein production: not failed

## MSKKSGLSFLWLSAVAFVIDLLTKYIVVQKFDLYESVNVLPVFNLTYVRNYGAAFSFLADHSGWQQYFFILLALAISGMLVYFLAKNNAEQKIQNSAYALIIGGALANMVDRAYNGFVVDFFDFYWDIYHYPVFNIADIAICIGAGLLVLDAFKSEKKKVQDKQVEKCGQK
  protein production: failed

## MSKPLYVFDMDETLINADCAMIWNAFLVEKGIATQPNFIEEDQRLMALYAEGKMDMEDYLEFCMAPLADMPIAHVLMLVEECVEHHILPKQFEQSKTLIAQLDRDDIDMVIISASVTFLVEAVGRRLGIPVALGIDLVEKHGSYSAEIAGVPSYREGKVIRLKAWLDAQPESYSEVHFYTDSINDLPLCEYADYAYLVNPCPQLKARADKANWTLLRWN
  protein production: failed

## MSKQAVYKIELKIFGYFILILMLSTITVILMLIVKNALEEVLIRYNENTLMTAKFLFCDVKKFSIVMYFFVFVIWSHLLLKRKVQYFINLSESTSEIAKGNFKVIIPVKREDEFGNLAKGINEIVEKFNFILKKEKEIEKTKIDLITNVSHDLRTPLTSILGYLELVENDQYKDEVALWYYIDIAYNKTKRLKVLIDDLFQLTTLNEHSMKLCKKEINIAELLKQLIGEYMLNFQKAGIRCRLKLTDEKLYVLGDAVLLIRAFENIIINCIKYSKTSEIMDVSVQRKGDMAVLNFINYGEPIPAIDIPYIFQRFYRVDKSRSDKLGGSGLGLAIAKNIIDITGGNIEVESDTTRTNFKIVLPCYGK
  protein production: failed

## MSKQLLALNIDGALLRSNGKIHQATKDAIEYVKKKGIYVTLVTNRHFRSAQKIAKSLKLDAKLITHSGAYIAEKIDAPFFEKRISDDHTFNIVQVLESYQCNIRLLHEKYSIGNKKKVNSNLLGKALIHPSDPIFYPVQFVESLSDLLMDEPVSAPVIEVYTEHDIQHDITETITKAFPAVDVIRVNDEKLNIVPKGVSKEAGLALVASELGLSMDDVVAIGHQYDDLPMIELAGLGVAMGNAVPEIKRKADWVTRSNDEQGVAYMMKEYFRMQQRKGFLDKFHMKR
  protein production: not failed

## MSKRSEVLEQFHGGLKNLELQTKRRMGLWGDPKENEEQTLFLEEIENELKQLENKENLKADNNTEFKEENQDTKENQPNDLFSLPLPTQTTINGIKEFVEEPVIETEKKETSQNEPIQEKKERIFKNFFSRIGFDKSIAPTMLFEEVRDASVIYHLEKKLGDYIFYVACFFFGTTALLIILLTILLPLKQKEPYLVQFSNNKENFALVQKADSSITANKALIRSLVGAYVLNRESITHIEQHEKMRQNTIKEQSSNEVWYEFEKLIAHYDSIYTNPLLTRKVKIANIYLDKDLAYIDIEVSLYHSGELESLKRYKVVMSFEFKKQEINFDSMSLNPTGFMVTSYDVTEIAIVNYPTAKAIGLFLAS
  protein production: failed

## MSKTDTAAVEATEENSNETTSDAATSSSGEKEAEFDNKIEADRSRRFDFLLKQTEIFTHFMTNSAKSPTKPKGRPKKIKDKDKEKDVADHRHRKTEQEEDEELLAEDSATKEIFRFDASPAYIKSGEMRDYQIRGLNWMISLYENGINGILADEMGLG
  protein production: failed

## MSKTLKEITDQKNELKKFFENFVLNLEKTEIFSEIQKNLTDEVLFVGCGSSYNLALTISYYFERVLKIRTKAIPAGEVAFQKIPDLEERGLAFLFSRTGNTTEVLLANDVLKKRNHRTIGITIEEESRLAKESDLPLVFPVREEAIVMTKSFSMILLSLMFLADKIAGNSTERFSELVGYSPEFFDISWKVIEKIDLKEHDHFVFLGMSEFFGVSLESALKCIEMSLTFSEAYSTLEYRHGPKALVKKGTLVFMQKVSGMDEQEKRLRKELESLGATVLEVGEGGDIPVSNDWKSAFLRTVPAQILGYQKAISRGISPDKPPHLEKTVVL
  protein production: not failed

## MSKVCQVTGKRPVVGNNVSHANNKTKRRFEPNLHHHRFWLESEKRFVRLRLTTKGMRIIDKLGIEKVVADLRAQGQKI
  protein production: failed

## MSKVFVNISLSLDGFMAPEGMDMAHFSDPTYKNWGAKWGALMAWALSQQYLREKLKLGTGGETGPVNDMVRHTFERTGAHIMGKRMFEGGERGWPEEAPFHTPVYVLTHERRNPWVRPGGTTFYFVNDGPEQALALAREAAGERDIRISGGANVIQQYLNLGLVDELEIALIPVIFGGGRRLFENLHEPLPQFRIDRVLASPTATHLRYVRL
  protein production: not failed

## MSKVIIPKIVGHRGVGKEGLAPENTLRSFVLCMERNIPYIETDLRVCKTGEIVLFHGTPEGTIPFYKDGTSRIGDLSLEELKRLDVGGGHTIPSLEELFVAIEEQKFNLKLNLELKGEEWKRKESGDHQRLLLLVEKYHMQERVDYCSFHHEALAHLKALCPDVKITYLFNYMGQPTPLDFVEQTQKACYGDANGVSMLFHYLTKEQVCTAHEKGLSVTVWMPWIFDDSEEDWKKCLELQVDLICSNYPFGLMNFLSNISE
  protein production: not failed

## MSKVNQQDIDKLIELVGGRGNIATVSHCITRLRFVLNDPAIARPKEIEQLRMVKGCFTNAGQFQVVIGTEVGDYYKALLATTGQTSADKEQVKQAARQNM
  protein production: failed

## MSLAARLIRSSRSNTFGIITDYVSTTPYSVDIVRGIQDWANANGKTILIANTGGSSEREVEIWKMFQSHRIDGVLYVTMYRRIVDPESGDVSIPTVMINCRPQTRELLPSIEPDDYQGARDLTRYLLERGHRRIGYIRLNPILLGAELRLDAFRRTTSEFGLTENDLSISLGMDGPVGAENNYVFAAATEMLKQDDRPTAIMSGNDEMAIQIYIAAMALGLRIPQDVSIVGFDDFRTVTMALKPELTTAALPYYDLGREGAKWLNDLIAGEKIYPGSRVVSCKLVERSSAAFGEGHHHHHH
  protein production: not failed

## MSLAEVNPMSKPLVRWPINPLRTAVIVVDMQKVFCEPTGALYVKSTADIVQPIQKLLQAARAAQVMVIYLRHIVRGDGSDTGRMRDLYPNVDQILARHDPDVEVIEALAPQSDDVIVDKLFYSGFHNTDLDTVLRARDVDTIIVCGTVTNVCCETTIRDGVHREYKVIALSDANAAMDYPDVGFGAVSAADVQRISLTTIAYEFGEVTTTAEVIRRIESAYPHGREGHHHHHH
  protein production: not failed
